Assay results from patent US5891439.

Biological target: mouse CD8 (mouse) (UniProt P01731)
Assay: cell ELISA on dried mouse thymocytes containing CD8+ cells, detection with biotinylated MO3

## native trypanosome-derived lymphocyte triggering factor (TLTF), antibody affinity purified (ligand)
  dilution of TLTF down to which a signal above background was obtained: 0.001 dilution
